US20190040138A1 (AKESO BIOPHARMA, published 2019)

How the values were obtained:
[1] = biological target: T1, PD-1-mIgGFc fusion protein; experiment: ELISA on coated PD-1-mFc; antibody 1 µg/ml; replicate 1
T1 construct: also called PD-1-mFc; PD-1-mIgGFc antigen
Experimental: (§1) An ELISA plate was coated with PD-1-mFc antigen in a concentration of 0.5 μg/ml (50 μl per well) by incubation at 4° C. overnight.
(§2) After the ELISA plate was washed with the PBST buffer for three times and gently patted to dryness again, TMB as a developer in 50 μl per well was added for incubation at room temperature for 5 to 10 minutes.
(§3) The absorbance of solution in each well was measured with the microplate reader under a wavelength of 450 nm.

[2] = biological target: T1, PD-1-mIgGFc fusion protein; experiment: ELISA on coated PD-1-mFc; antibody 1 µg/ml diluted 1:81; replicate 1
Experimental: as §1
The ELISA plate coated with the PD-1-mFc antigen was blocked with 1% BSA in the PBS buffer at 37° C. for 2 hours, and washed with 1×PBST buffer containing 1% Tween-20 for three times, with gently patting to dryness.
as §3

[3] = biological target: T2, PD-1 antigen stably expressed on the surface of BB007 cells (UniProt Q15116 25-288, limits assumed); experiment: flow cytometry on BB007 cells; antibody 20 nM
T2 construct: whole, on cells; also called target protein PD-1 on the surface of the BB007 cell
T2 sequence (Q15116 25-288 limits assumed): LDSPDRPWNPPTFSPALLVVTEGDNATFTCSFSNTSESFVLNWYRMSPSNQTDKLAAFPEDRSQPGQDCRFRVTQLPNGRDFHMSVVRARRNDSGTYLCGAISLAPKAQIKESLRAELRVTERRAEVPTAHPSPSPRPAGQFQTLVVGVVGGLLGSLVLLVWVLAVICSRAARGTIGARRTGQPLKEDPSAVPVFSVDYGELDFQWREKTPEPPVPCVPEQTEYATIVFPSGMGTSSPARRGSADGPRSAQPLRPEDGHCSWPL
Experimental: (§4) The binding efficiencies of H1L1, H2L2 and H3L3 antibodies to PD-1 antigen stably expressed on the surface of cells (named as BB007 cells) were determined by flow cytometry. The BB007 cells were obtained by routine trypsin digestion, and then washed with PBS buffer once, followed by dividing into several tubes, with 2×10⁵ cells per tube. After dilution into concentrations of 20 nM, 10 nM, 5 nM, 1 nM, 0.1 nM and 0 nM with the PBS buffer containing 1% BSA for each of the H1L1, H2L2 and H3L3 antibodies, individual antibodies in a volume of 100 μl were added into individual tubes and incubated on ice for 1 hour. After the mixture was washed with the PBS buffer once, 100 μl FITC-Goat-Anti-Human IgG (in 1:500 dilution) was added for each tube and incubated on ice for 1 hour, followed by addition of 300 μl the PBS buffer for detecting fluorescence signal with a FITC channel on the flow cytometer.

[4] = biological target: T1, PD-1-mIgGFc fusion protein; experiment: ELISA on coated PD-1-mFc; antibody 1 µg/ml diluted 1:729; replicate 1
Experimental: as §1, §2, §3

[5] = biological target: T1, PD-1-mIgGFc fusion protein; experiment: competitive ELISA on coated PD-1-mIgGFc; competitor PDL1-mIgG2aFc 0.3 µg/ml; antibody 1.5 µg/ml diluted 1:81; replicate 1
Experimental: (§5) A 96-well ELISA plate was coated with PD-1-mIgGFc antigen in a concentration of 0.5 μg/ml (50 μl per well) by incubation at 4° C. overnight.
(§6) The 18A10 H1L1, 18A10 H2L2 and 18A10 H3L3 antibodies each were diluted from 3 μg/ml in series by 1:3, with 7 gradient antibody solutions obtained for each antibody. The 7 gradient antibody solutions for each antibody and the blank PBS control (50 μl per well) were respectively added into the blocked 96-well ELISA plate for incubation at room temperature for 10 minutes.
as §3

[6] = biological target: biotin-labeled PD-1 antigen (UniProt Q15116 25-167, limits assumed, biotin-labeled (site not stated)); experiment: BLI (Fortebio), biotin-labeled PD-1 on SA sensor
Sequence of biotin-labeled PD-1 antigen (Q15116 25-167 limits assumed): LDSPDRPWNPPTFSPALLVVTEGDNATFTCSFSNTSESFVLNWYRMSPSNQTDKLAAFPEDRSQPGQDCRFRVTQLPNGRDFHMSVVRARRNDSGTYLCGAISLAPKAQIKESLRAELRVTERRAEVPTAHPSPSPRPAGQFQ
Experimental: Kinetic characteristic parameters of 18A10 H1L1, H2L2 and H3L3 antibodies were determined using the Fortebio molecule interaction instrument.
The biotin-labeled PD-1 antigen was immobilized on the surface of the SA sensor. […] Assays for H2L2 and H3L3 are the same as H1L1. Results of kinetic characteristic parameters of the H1L1, H2L2 and H3L3 antibodies are shown in Table 4, FIG. 4, FIG. 5 and FIG. 6.

[7] = biological target: T2, PD-1 antigen stably expressed on the …; experiment: flow cytometry on BB007 cells
Experimental: as §4

[8] = biological target: T1, PD-1-mIgGFc fusion protein; experiment: ELISA on coated PD-1-mFc; antibody 1 µg/ml diluted 1:729; replicate 2
Experimental: as §1, §2, §3

[9] = biological target: T2, PD-1 antigen stably expressed on the …; experiment: flow cytometry on BB007 cells; antibody 0.1 nM
Experimental: as §4

[10] = biological target: T1, PD-1-mIgGFc fusion protein; experiment: competitive ELISA on coated PD-1-mIgGFc; competitor PDL1-mIgG2aFc 0.3 µg/ml; antibody 1.5 µg/ml diluted 1:729; replicate 2
Experimental: as §5, §6, §3

[11] = biological target: T1, PD-1-mIgGFc fusion protein; experiment: competitive ELISA on coated PD-1-mIgGFc; competitor PDL1-mIgG2aFc 0.3 µg/ml; antibody 1.5 µg/ml diluted 1:243; replicate 2
Experimental: as §5, §6
(§7) After the 96-well ELISA plate was washed with the PBST buffer for three times and gently patted to dryness, goat anti-mouse IgG-HRP (H+L) as a secondary antibody in 1:5000 dilution (50 μl per well) was added for incubation at 37° C. for 1 hour.

[12] = biological target: T1, PD-1-mIgGFc fusion protein; experiment: competitive ELISA on coated PD-1-mIgGFc; competitor PDL1-mIgG2aFc 0.3 µg/ml; antibody 1.5 µg/ml diluted 1:9; replicate 1
Experimental: as §5, §6, §7

[13] = biological target: T1, PD-1-mIgGFc fusion protein; experiment: ELISA on coated PD-1-mFc; antibody 1 µg/ml diluted 1:81; replicate 2
Experimental: as §1, §2, §3

[14] = biological target: T1, PD-1-mIgGFc fusion protein; experiment: ELISA on coated PD-1-mFc; antibody 1 µg/ml; replicate 2
Experimental: as §1, §2, §3

[15] = biological target: T1, PD-1-mIgGFc fusion protein; experiment: ELISA on coated PD-1-mFc; antibody 1 µg/ml diluted 1:3; replicate 2
Experimental: as §1, §2, §3

[16] = biological target: T1, PD-1-mIgGFc fusion protein; experiment: competitive ELISA on coated PD-1-mIgGFc; competitor PDL1-mIgG2aFc 0.3 µg/ml; antibody 1.5 µg/ml diluted 1:9; replicate 2
Experimental: as §5
[…] The 7 gradient antibody solutions for each antibody and the blank PBS control (50 μl per well) were respectively added into the blocked 96-well ELISA plate for incubation at room temperature for 10 minutes.
as §7

[17] = biological target: T2, PD-1 antigen stably expressed on the …; experiment: flow cytometry on BB007 cells; antibody 1 nM
Experimental: as §4

T1 sequence (chain, as listed by the source limits assumed): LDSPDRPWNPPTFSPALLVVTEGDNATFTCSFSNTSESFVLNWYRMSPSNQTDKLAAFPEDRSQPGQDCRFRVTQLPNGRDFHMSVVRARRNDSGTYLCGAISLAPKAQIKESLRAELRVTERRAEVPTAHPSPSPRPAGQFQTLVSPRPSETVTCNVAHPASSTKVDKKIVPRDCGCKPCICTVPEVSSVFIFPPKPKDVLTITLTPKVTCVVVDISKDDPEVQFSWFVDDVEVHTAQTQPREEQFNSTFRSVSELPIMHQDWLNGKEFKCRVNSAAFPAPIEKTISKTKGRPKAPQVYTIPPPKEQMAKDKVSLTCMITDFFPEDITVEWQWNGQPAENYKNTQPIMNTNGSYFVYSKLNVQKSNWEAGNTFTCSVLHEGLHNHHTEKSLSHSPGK

Row | absorbance at 450 nm [1] | absorbance at 450 nm [2] | fluorescence intensity [3] | absorbance at 450 nm [4] | absorbance at 450 nm (competition) [5] | Kd [6] | koff [6] | kon [6] | EC50 [7] | absorbance at 450 nm [8] | fluorescence intensity [9] | absorbance at 450 nm (competition) [10] | absorbance at 450 nm (competition) [11] | absorbance at 450 nm (competition) [12] | absorbance at 450 nm [13] | absorbance at 450 nm [14] | absorbance at 450 nm [15] | absorbance at 450 nm (competition) [16] | fluorescence intensity [17] | Binder
1 | 2.36 | 1.04 | 329 | 0.226 | 1.09 | 0.0428 nM | 9.86e-06 s⁻¹ | 231000 M⁻¹ s⁻¹ | 1.59 nM | 0.224 | 19.1 | 1.19 | 1.21 | 0.474 | 1.14 | 2.43 | 2.36 | 0.506 | 92.5 | humanized antibody 18A10 H2L2 (antibody, V domains shown, also called H2L2 antibody) VH: EVQLVQSGGGLVQPGGSLKLSCAASGFTFSSYGMSWVRQAPGKGLDWVATISGGGRDTYYPDSVKGRFTISRDNSKNNLYLQMNSLRAEDTALYYCARQKGEAWFAYWGQGTLVTVSS VL: not shown
2 | 2.14 | 0.928 | 367 | 0.2 | 1.09 | 0.114 nM | 1.56e-05 s⁻¹ | 137000 M⁻¹ s⁻¹ | 1.68 nM | 0.185 | 21.2 | 1.24 | 1.21 | 0.7 | 0.809 | 2.44 | 2.09 | 0.678 | 110 | humanized antibody 18A10 H3L3 (antibody, V domains shown, also called H3L3 antibody) VH: EVQLVQSGGGLVQPGGSLKLSCAASGFTFSSYGMSWVRQAPGKGLDWVATISGGGRDTYYPDSVKGRFTISRDNSKNTLYLQMNSLRAEDTAVYYCARQKGEAWFAYWGQGTLVTVSS VL: DIVLTQSPASLAVSPGQRATITCRASESVDNYGISFMNWYQQKPGQPPKLLIYAASNKATGVPARFSGSGSGTDFTLNINPMEANDTAVYFCQQSKEVPWTFGGGTKLEIK
3 | 2.47 | 0.883 | 358 | 0.186 | 1.29 | 0.036 nM | 1.32e-05 s⁻¹ | 367000 M⁻¹ s⁻¹ | 3.38 nM | 0.163 | 19 | 1.3 | 1.21 | 0.625 | 0.834 | 2.32 | 2.34 | 0.586 | 64.4 | humanized antibody 18A10 H1L1 (antibody, V domains shown, also called H1L1 antibody) VH: EVQLVQSGGGLVQPGGSLKLSCAASGFTFSSYGMSWVRQTPEKGLDWVATISGGGRDTYYPDSVKGRFTISRDNSKNNLYLQMNSLRAEDTALYYCARQKGEAWFAYWGQGTLVTVSS VL: not shown
